The results in this text go back to the supplement of paper PMC10567573.

± gives the standard deviation.

A short description of this data set: protein stability index of a GFP-peptide fusion (GPS, HEK-293T) (PSI 1-6); higher = more stable.
The mark [1] stands for this setting: treatment: DMSO, c terminus: a fixed tail appended.
The mark [2] stands for this setting: treatment: MLN4924 1 uM, 8 h, c terminus: a fixed tail appended.
The mark [3] stands for this setting: treatment: DMSO, c terminus: native.
The mark [4] stands for this setting: treatment: MLN4924 1 uM, 8 h, c terminus: native.
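Further: 24-mer peptide tiles fused after GFP, lentivirally expressed, FACS-sorted into six equal bins by GFP/DsRed ratio, decoded by Illumina sequencing, PSI is the read-weighted mean bin number.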

For the sequence CRREAFRRLGNGVSDDLSSEEDGE [PHTF1], the protein stability index by setting is: under setting [1], 4.94 ± 0.19; under setting [2], 4.77 ± 0.13.

For CSQHWGGMASFRFPETTFISVTAY [TBX6], the protein stability index came out at 3.18 ± 0.6 under setting [1] and 2.85 ± 0.47 under setting [2].

Take CTACGSVLEDNIIVSEVQFVESSG [BRF1]: the protein stability index reads like this: under setting [1], 3.42 ± 0.57; under setting [2], 3.74 ± 0.35.

Sequence CTLGICGQGLKSYMTKPSKSLLPH [RTP4] displayed a protein stability index under setting [1] of 2.2 ± 0.3 and a protein stability index under setting [2] of 2.21 ± 0.35.

As for CVLRCSVLEIEQSMNRVKNISDAD [FEM1B], the protein stability index came to 2.58 ± 0.37 under setting [1] and 2.83 ± 0.24 under setting [2].

Take CWLNAFAEMLRFGDRMFYRDWWNS [SOAT2]: the protein stability index worked out at 2.47 ± 0.4 under setting [1] and 2.91 ± 0.16 under setting [2].

As to CYSEEITVCGDLHGQLDDLIFIFY [PPEF2], the protein stability index under setting [1] is 2.96 ± 0.43 and the protein stability index under setting [2] was found to be 2.65 ± 0.46.

Regarding CYYCQAYVHHQALLDVKNIAHQNK [HDAC6], the protein stability index by setting is: under setting [1], 2.61 ± 0.33; under setting [2], 2.33 ± 0.48.

DAAGHGFCYCAGSHKRKRSSGSFC [GMCL1]: the protein stability index under setting [1] amounted to 3.08 ± 0.22 and the protein stability index under setting [2] worked out at 3.35 ± 0.15.

As to DAEVSCTDNGTFNLSRGQTPLTEG [RETREG3], the protein stability index came out at 5.2 ± 0.25 under setting [1] and 5.32 ± 0.1 under setting [2].

On to DDGIKVVKVTFNKQDSLVILTIMA [TMEM106C], for which the protein stability index was determined as 2.71 ± 1 under setting [1] and 3.11 ± 1 under setting [2].

As for DDIARIYQPKRYALSPKTTITMAH [FAM98B], the protein stability index runs as follows: under setting [1], 2.77 ± 0.21; under setting [2], 2.92 ± 0.17.

DDPENKKTSSSSKAGFTASPFTNL [CDC14A]: the protein stability index is 4.92 ± 0.27 under setting [1] and 4.95 ± 0.14 under setting [2].

Regarding DDSGGPTPSSYAPSHPPRPLLPLD [ZBTB22], the protein stability index under setting [1] stood at 4.54 ± 0.25 and the protein stability index under setting [2] worked out at 4.79 ± 0.22.

Regarding DEEERRRRVFDVPIRRRRCSRLF [FBXO3], the protein stability index is, setting by setting: under setting [3], 3.32 ± 0.61; under setting [4], 3.73 ± 0.82.

As for DEIEEVPTTSHRLSRHDKAVQRFC [NETO1], the protein stability index reads like this: under setting [1], 4.78 ± 0.18; under setting [2], 4.68 ± 0.1.

DENEDVNFDHFEILRAIGKGSFGK [STK32A]: the protein stability index is, setting by setting: under setting [1], 4.22 ± 0.18; under setting [2], 4.14 ± 0.17.

DFGLAIEVQGDQQAWFGFAGTPGY [CAMK2B]: the protein stability index reads like this: under setting [1], 2.26 ± 0.35; under setting [2], 2.15 ± 0.3.

Regarding DFIDCVREKGGKVLVHCEAGISRS [DUSP5], the protein stability index under setting [1] is 2.77 ± 0.2 and the protein stability index under setting [2] stood at 2.79 ± 0.41.

As to DGASQDCPPLPAGVSFHIDSAELE [FBXO34], the protein stability index runs as follows: under setting [1], 5.39 ± 0.14; under setting [2], 5.4 ± 0.16.

Sequence DGLREALANLRGLSEEERSEKAML [CCDC89] displayed a protein stability index under setting [1] of 4.93 ± 0.22 and a protein stability index under setting [2] of 4.51 ± 0.44.

On to DGSGMPKTMQSEETRVWHRRDGKW [CAMK2D], for which the protein stability index reads like this: under setting [1], 4.49 ± 0.35; under setting [2], 4.59 ± 0.095.

As to DHGCEQLCLNTEDSFVCQCSEGFL [MATN2], the protein stability index stood at 4.18 ± 0.21 under setting [1] and 4.06 ± 0.3 under setting [2].

For the sequence DIKKVNNFIREQDLYALKSVKIPV [LYSMD4], the protein stability index runs as follows: under setting [1], 2.38 ± 0.15; under setting [2], 2.53 ± 0.4.

Take DKENGENVGLESKYLKKREDSIPL [SASS6]: the protein stability index under setting [1] was 5.03 ± 0.18 and the protein stability index under setting [2] came to 4.76 ± 0.24.

Take DLEAQMESLKEELLSLKQNHEQEV [KRT33B]: the protein stability index reads like this: under setting [1], 4.95 ± 0.32; under setting [2], 4.96 ± 0.22.

In turn, DLMKRLRFALIPAPELVERVQSVD [KLHL14] had a protein stability index under setting [1] of 2.16 ± 0.14 and a protein stability index under setting [2] of 2.3 ± 0.21.

As to DLVKKIRDFHRKILTLPEMMRMFS [TRIM15], the protein stability index by setting is: under setting [1], 2.45 ± 0.46; under setting [2], 2.35 ± 0.19.

For the sequence DPLSPMTASSLLSFAELFSFMLQD [FEM1C], the protein stability index runs as follows: under setting [1], 2.71 ± 0.49; under setting [2], 2.42 ± 0.51.

On to DQEAVCLICAISHTHRAHTVVPLD [TRIM39], for which the protein stability index is, setting by setting: under setting [1], 2.22 ± 0.21; under setting [2], 2.19 ± 0.35.

Turning to DRADYYLEEFKENAYKDLAWKHGN [PCMTD2], the protein stability index reads like this: under setting [1], 3.75 ± 0.084; under setting [2], 3.07 ± 0.77.

Sequence DREEEAIHHLVLTASDGGDPLRSG [PCDHGA10] had a protein stability index under setting [1] of 5.02 ± 0.2 and a protein stability index under setting [2] of 5.08 ± 0.11.

As to DRTFTLKTVLMIAIQLLSRMEYVH [CSNK1G1], the protein stability index was determined as 3.15 ± 0.067 under setting [1] and 2.65 ± 1.1 under setting [2].

Regarding DTSFLPDRDREEEENRLREELRQE [FAM50A], the protein stability index was 5.17 ± 0.31 under setting [1] and 5.41 ± 0.18 under setting [2].

Consider DVAEGYRKLSLKGHNDWVMDVAIS [WDR88], for which the protein stability index reads like this: under setting [1], 2.47 ± 0.31; under setting [2], 2.69 ± 0.5.

Take DVAISANIADIEEKRGFTSHFVFV [NCF4]: the protein stability index was 2.23 ± 0.6 under setting [1] and 2.55 ± 0.47 under setting [2].

Consider DVMLVECYDPKGDQWNILQTPILE [KLHL14], for which the protein stability index by setting is: under setting [1], 2.55 ± 0.36; under setting [2], 2.64 ± 0.38.

For the sequence DVPNRLVDNIDMIDGDGDDMERFM [BEX5], the protein stability index by setting is: under setting [1], 4.98 ± 0.18; under setting [2], 5.06 ± 0.21.

For the sequence DVPVIPLDVVDNQTEKLDTNITEV [CASP6], the protein stability index was found to be 5.19 ± 0.067 under setting [1] and 5.14 ± 0.3 under setting [2].

Regarding EAAGVVVEEELFHQQGTPRASNRS [LMNB1], the protein stability index was 5.31 ± 0.41 under setting [1] and 5.47 ± 0.14 under setting [2].

On to EAFKNILTEIYRIVSQKQIADRAA [RAB11B], for which the protein stability index runs as follows: under setting [1], 2.81 ± 0.4; under setting [2], 2.81 ± 0.49.

For the sequence EALNERHSIINALKAKLQMTEAAL [LRRC45], the protein stability index is 2.66 ± 0.2 under setting [1] and 2.91 ± 0.3 under setting [2].

Turning to EAPALGGGEYQEPGGNVKGVWAPP [BEX5], the protein stability index is, setting by setting: under setting [1], 4.57 ± 0.37; under setting [2], 4.71 ± 0.14.

Take EARICRLLKHPNIVRLHDSISEEG [CAMK2D]: the protein stability index reads like this: under setting [1], 3.56 ± 0.47; under setting [2], 3.34 ± 0.28.

For EAVKYYTLEEIQKHNHSKSTWLIL [CYB5A], the protein stability index under setting [1] came to 2.44 ± 0.65 and the protein stability index under setting [2] is 2.3 ± 0.24.

Consider EAVSDSTPFLTNHGAHKAEKKLFE [ZNF263], for which the protein stability index runs as follows: under setting [1], 4.65 ± 0.5; under setting [2], 4.42 ± 0.41.

With ECAKAFSRSAILIQHRRTHTDSKY [ZNF396], the protein stability index under setting [1] was 2.55 ± 0.21 and the protein stability index under setting [2] turned out to be 2.67 ± 0.21.

Turning to ECGHNFCKACITRWWEDLERDFPC [TRIM39], the protein stability index came to 2.97 ± 0.49 under setting [1] and 3.01 ± 0.7 under setting [2].

As to EDDSMSVIEPVVENSGILQGKLIK [EFHC1], the protein stability index under setting [1] came to 4.89 ± 0.45 and the protein stability index under setting [2] was determined as 5.45 ± 0.25.

Take EDEEEEEGENYQKGERGEDSSEEK [CHGB]: the protein stability index by setting is: under setting [1], 5.622 ± 0.029; under setting [2], 5.66 ± 0.21.

Turning to EDHKPGTFPKALTNGSFSPSGNNG [DLC1], the protein stability index came out at 4.89 ± 0.11 under setting [1] and 4.91 ± 0.37 under setting [2].

EDLEATSEHFKTTSQKVARKFWWK [VAMP8]: the protein stability index reads like this: under setting [1], 4 ± 0.18; under setting [2], 3.82 ± 0.25.

Turning to EDNLEDDDVEMKNGITQGDKLRAL [CDC14A], the protein stability index by setting is: under setting [1], 5.44 ± 0.26; under setting [2], 5.38 ± 0.12.

The sequence EDRVKLFGIEIEVTDINDNAPKFQ [PCDHGA10] showed a protein stability index under setting [1] of 3.35 ± 0.43 and a protein stability index under setting [2] of 3.52 ± 0.46.

Consider EDTKPKPTKRKRKGSSAVGSDSD [INTS3], for which the protein stability index by setting is: under setting [3], 5.45 ± 0.25; under setting [4], 5.4 ± 0.33.

EEAEGARWTSYRFSRVCRLHRGQL [TRIM35] displayed a protein stability index under setting [1] of 2.91 ± 0.23 and a protein stability index under setting [2] of 3 ± 0.08.

Take EEKIQVLQQQNEDLKARIDQNTVV [MTUS2]: the protein stability index reads like this: under setting [1], 5.28 ± 0.24; under setting [2], 5.28 ± 0.069.

Sequence EELLYDYGDRSKASIEAHPWLKH [KMT5A] came in with a protein stability index under setting [3] of 4.9 ± 0.39 and a protein stability index under setting [4] of 4.83 ± 0.28.

Turning to EELVARSETHAAGHSQEKTHSREK [CHGB], the protein stability index was 5.66 ± 0.28 under setting [1] and 5.47 ± 0.5 under setting [2].

With EEPCSPGLLQDQGSGLSSRFEEPK [CBY2], the protein stability index worked out at 5.4 ± 0.19 under setting [1] and 5.29 ± 0.34 under setting [2].

EESTPGQTNSETAVVALTQDQPSE [HDAC6]: the protein stability index reads like this: under setting [1], 5.49 ± 0.22; under setting [2], 5.59 ± 0.34.

EEYPGITAEDSNDIYILPSDNSGQ [BCL2L13] had a protein stability index under setting [1] of 5.25 ± 0.18 and a protein stability index under setting [2] of 5.14 ± 0.21.

Consider EFDYLKSLEIEEKINKIRWLPQQN [PPP2R2B], for which the protein stability index is 2.62 ± 0.21 under setting [1] and 2.9 ± 0.42 under setting [2].

Sequence EFFLEQTKKKGVKRPARLHTKPSQ [NOP53] had a protein stability index under setting [1] of 3.66 ± 0.55 and a protein stability index under setting [2] of 3.68 ± 0.5.

Take EGDVCGVEPPGPGDTVVQGDLQET [PBXIP1]: the protein stability index was 5.57 ± 0.28 under setting [1] and 5.64 ± 0.19 under setting [2].

As for EGLNSSLCSPGHERRGTPADTEEP [PSD2], the protein stability index under setting [1] came to 5.39 ± 0.37 and the protein stability index under setting [2] turned out to be 5.53 ± 0.19.

Turning to EGLRELQRSRRLCHEDVEALAAIY [DAPK3], under setting [1], the protein stability index turned out to be 2.72 ± 0.74.

Consider EGNALQGPILQKDYVQLENQWETP [ZNF449], for which the protein stability index by setting is: under setting [1], 4.86 ± 0.13; under setting [2], 4.68 ± 0.23.

As to EGRGPVTPLHLDLTQLHRLSLESS [PLEKHN1], the protein stability index under setting [1] came to 3.4 ± 0.31 and the protein stability index under setting [2] stood at 3.28 ± 0.22.

For the sequence EHACTVRNLARSQSVKMKDKLKID [TAF7L], the protein stability index is, setting by setting: under setting [1], 4.75 ± 0.18; under setting [2], 4.81 ± 0.2.

As for EHPPEVSRETQRTPMNHQKAVNDE [FBXO34], the protein stability index is, setting by setting: under setting [1], 5.29 ± 0.21; under setting [2], 5.41 ± 0.075.

For EIDCVDKDGNTPLHVAARYGHELL [ANKRD44], the protein stability index reads like this: under setting [1], 4.05 ± 0.26; under setting [2], 4.05 ± 0.19.
